Molecular target: brr2_yeast BRR2 (UniProt P32639)
Sequence (P32639 whole entry): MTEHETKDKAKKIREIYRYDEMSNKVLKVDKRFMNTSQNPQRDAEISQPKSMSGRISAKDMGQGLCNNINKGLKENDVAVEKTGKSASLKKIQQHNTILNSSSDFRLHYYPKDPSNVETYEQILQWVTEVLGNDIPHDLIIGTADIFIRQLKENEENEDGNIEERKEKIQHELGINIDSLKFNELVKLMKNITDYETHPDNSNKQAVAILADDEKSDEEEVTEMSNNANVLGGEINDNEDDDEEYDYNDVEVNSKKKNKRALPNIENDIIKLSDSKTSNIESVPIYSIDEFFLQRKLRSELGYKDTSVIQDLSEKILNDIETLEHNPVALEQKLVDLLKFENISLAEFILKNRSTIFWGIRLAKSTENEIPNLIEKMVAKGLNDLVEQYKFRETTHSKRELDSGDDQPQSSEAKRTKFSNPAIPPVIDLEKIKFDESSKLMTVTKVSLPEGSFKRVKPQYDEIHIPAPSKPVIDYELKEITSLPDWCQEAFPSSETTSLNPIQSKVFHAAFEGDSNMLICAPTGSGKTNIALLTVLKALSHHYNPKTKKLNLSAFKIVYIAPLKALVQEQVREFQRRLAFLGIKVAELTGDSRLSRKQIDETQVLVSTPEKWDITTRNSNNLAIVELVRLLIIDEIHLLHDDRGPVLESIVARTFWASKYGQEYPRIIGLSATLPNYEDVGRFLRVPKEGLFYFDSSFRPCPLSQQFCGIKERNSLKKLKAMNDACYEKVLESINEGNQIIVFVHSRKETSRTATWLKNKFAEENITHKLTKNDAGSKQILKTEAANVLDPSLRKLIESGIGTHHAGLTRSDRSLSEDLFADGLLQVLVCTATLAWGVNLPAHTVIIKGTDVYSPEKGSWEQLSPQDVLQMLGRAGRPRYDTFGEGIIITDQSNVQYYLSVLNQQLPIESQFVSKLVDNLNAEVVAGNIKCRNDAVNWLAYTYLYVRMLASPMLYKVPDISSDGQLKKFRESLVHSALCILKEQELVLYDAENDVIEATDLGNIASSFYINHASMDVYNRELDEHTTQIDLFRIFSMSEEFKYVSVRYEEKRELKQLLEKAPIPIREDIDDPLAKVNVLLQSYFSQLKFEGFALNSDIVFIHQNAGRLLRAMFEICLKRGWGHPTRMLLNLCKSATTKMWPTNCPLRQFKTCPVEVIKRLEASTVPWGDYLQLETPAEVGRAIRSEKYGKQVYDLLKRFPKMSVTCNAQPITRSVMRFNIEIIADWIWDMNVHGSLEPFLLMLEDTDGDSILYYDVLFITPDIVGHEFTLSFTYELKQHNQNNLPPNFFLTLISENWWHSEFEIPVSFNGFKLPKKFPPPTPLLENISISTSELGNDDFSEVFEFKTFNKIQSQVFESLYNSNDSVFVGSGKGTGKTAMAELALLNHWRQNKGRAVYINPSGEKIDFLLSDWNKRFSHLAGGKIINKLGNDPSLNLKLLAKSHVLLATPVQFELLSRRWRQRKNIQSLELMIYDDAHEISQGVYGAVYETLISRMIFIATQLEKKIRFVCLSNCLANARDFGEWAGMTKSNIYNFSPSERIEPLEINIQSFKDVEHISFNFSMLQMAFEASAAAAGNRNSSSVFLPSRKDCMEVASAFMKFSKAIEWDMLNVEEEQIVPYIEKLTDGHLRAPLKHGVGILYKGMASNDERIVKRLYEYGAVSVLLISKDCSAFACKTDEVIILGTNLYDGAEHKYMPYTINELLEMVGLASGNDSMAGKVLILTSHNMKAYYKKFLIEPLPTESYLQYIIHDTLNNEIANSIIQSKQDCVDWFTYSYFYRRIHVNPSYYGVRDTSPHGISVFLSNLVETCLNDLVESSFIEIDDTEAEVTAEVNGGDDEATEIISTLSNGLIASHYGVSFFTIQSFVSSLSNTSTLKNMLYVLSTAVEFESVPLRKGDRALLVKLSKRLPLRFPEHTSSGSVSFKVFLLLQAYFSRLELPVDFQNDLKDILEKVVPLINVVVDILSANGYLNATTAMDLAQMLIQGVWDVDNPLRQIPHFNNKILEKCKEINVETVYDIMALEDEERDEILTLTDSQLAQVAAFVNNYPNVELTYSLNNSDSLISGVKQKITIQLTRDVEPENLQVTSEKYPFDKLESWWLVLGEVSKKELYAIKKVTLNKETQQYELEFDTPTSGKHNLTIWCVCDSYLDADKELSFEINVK

Chain of Pre-mRNA-splicing factor 8 (Saccharomyces cerevisiae), P33334 H2387P (P33334 whole entry H2387P): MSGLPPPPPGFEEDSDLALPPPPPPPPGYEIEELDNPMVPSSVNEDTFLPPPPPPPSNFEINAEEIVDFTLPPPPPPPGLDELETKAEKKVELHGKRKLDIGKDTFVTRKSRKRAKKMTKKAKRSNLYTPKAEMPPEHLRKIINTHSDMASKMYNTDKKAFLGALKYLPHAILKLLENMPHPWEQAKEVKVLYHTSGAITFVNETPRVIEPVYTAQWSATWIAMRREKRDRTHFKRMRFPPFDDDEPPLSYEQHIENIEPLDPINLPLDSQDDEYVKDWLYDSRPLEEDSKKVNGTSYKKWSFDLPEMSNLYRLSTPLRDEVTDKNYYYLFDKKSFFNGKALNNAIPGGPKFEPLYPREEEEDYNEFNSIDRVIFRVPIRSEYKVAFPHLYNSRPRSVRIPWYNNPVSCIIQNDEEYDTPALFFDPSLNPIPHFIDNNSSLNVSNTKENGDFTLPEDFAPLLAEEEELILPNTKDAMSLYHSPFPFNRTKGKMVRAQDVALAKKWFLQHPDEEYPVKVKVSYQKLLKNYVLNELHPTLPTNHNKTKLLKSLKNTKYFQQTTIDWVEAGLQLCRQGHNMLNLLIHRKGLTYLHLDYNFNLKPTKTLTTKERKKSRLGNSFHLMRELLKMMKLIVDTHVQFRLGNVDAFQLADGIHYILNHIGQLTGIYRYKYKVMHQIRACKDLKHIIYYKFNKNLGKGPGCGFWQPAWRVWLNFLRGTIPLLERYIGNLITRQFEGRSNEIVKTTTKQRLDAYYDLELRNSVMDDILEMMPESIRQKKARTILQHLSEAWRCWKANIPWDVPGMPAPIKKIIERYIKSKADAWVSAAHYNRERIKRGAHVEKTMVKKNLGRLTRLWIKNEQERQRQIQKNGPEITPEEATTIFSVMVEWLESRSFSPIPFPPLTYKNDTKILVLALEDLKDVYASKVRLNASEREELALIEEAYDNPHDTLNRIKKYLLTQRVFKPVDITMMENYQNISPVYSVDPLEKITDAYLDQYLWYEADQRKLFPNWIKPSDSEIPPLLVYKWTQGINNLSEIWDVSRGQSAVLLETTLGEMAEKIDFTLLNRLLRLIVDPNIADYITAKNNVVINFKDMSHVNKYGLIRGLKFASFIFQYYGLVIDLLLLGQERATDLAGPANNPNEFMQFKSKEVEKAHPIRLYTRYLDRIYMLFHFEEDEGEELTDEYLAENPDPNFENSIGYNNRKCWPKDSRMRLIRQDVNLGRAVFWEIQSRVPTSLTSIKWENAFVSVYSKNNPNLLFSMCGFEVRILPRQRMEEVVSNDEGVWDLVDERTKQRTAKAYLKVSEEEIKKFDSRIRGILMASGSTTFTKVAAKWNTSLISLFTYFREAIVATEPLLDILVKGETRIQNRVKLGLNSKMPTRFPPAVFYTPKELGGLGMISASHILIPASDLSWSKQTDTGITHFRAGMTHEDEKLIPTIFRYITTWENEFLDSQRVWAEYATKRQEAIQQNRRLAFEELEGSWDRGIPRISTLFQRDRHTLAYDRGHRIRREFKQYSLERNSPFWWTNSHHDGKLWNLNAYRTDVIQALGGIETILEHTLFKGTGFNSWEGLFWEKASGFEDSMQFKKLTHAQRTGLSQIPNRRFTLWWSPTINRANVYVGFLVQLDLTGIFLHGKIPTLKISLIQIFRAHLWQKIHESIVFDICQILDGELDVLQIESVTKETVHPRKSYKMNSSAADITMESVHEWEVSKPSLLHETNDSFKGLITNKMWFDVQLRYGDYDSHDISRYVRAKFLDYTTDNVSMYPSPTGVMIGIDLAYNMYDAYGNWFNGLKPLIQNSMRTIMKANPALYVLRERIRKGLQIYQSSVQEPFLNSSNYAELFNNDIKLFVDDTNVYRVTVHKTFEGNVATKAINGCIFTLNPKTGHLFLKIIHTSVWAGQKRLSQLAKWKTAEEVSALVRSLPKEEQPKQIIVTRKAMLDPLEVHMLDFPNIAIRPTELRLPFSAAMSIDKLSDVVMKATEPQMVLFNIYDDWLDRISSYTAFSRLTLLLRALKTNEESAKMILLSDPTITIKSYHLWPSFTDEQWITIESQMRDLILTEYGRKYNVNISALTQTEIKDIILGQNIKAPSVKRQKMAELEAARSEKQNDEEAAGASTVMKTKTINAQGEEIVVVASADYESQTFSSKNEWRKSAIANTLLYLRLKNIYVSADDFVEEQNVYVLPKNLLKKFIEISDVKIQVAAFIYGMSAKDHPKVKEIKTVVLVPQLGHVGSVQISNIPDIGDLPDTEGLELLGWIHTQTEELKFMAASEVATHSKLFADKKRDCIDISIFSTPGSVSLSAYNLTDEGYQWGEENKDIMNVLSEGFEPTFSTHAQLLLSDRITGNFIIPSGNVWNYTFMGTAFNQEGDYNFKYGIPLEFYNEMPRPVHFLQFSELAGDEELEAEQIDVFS

| effect of a mutation on the interaction | Substance |
| --- | --- |
| disrupting interaction strength | Pre-mRNA-splicing factor 8 (Saccharomyces cerevisiae), P33334 H2387R |
| disrupting interaction strength | Pre-mRNA-splicing factor 8 (Saccharomyces cerevisiae), P33334 R2388K |
| disrupting interaction strength | Pre-mRNA-splicing factor 8 (Saccharomyces cerevisiae), P33334 H2387P |
| disrupting interaction strength | Pre-mRNA-splicing factor 8 (Saccharomyces cerevisiae), P33334 R2388G |
